What was measured:
Kalirin GEFD2 (KalGEFD2) = target: T1, Kalirin GEFD2 (KalGEFD2) (Rattus norvegicus, UniProt P97924); experiment: In vitro GEF assay on RhoA; assay type: biochemical; set-up: key to in vitro GEF assay (inhibition): +++^2 and +^2 represent respectively a full and a partial (see FIG. 3) inhibitory effect; +++^2 and +^2 represent respectively a full and a partial (see FIG. 3) inhibitory effect; −−^2 represents a lack of inhibitory effect; conditions: for Effect on Kalirin GEFD2 exchange activity on RhoA: 20-fold molar excess, KalGEFD2 1.7 μM
T1 construct: KalGEFD2, a.a; 1850-2190, 65% identity with TrioGEFD2; made in house
Procedure: To test the specificity of TRIAPα inhibition in vitro, exchange experiments were performed either on RhoA with different RhoA-specific GEFs: Trio GEFD2 (0.4 μM), Kalirin GEFD2 (KalGEFD2, 1.7 μM), p63RhoGEF (Souchet et al., 2002) (0.4 μM) and Lbc (amino acids 172-598; Zheng et al., 1995) (0.4 μM), or on RhoG, with the RhoG-specific GEF domain of Trio (TrioGEFD1, 0.1 μM). Exchange assays were performed with the recombinant GEFs as described in FIG. 2A. Different concentrations of RhoGEFs were used to yield a similar nucleotide exchange efficiency. For each exchange factor, three independent experiments were done in absence (black bar) or in the presence (grey bar) of a 20-fold molar excess of TRIAPα.
An in vitro guanine nucleotide exchange (GEF) assay was used to test whether the TrioGEFD2-binding aptamers could inhibit the catalytic activity of TrioGEFD2 towards RhoA. For this purpose, the aptamers TRIAPα, TRIAPβ and TRIAPγ (including the Trx gene) were excised from pEG202 as EcoRI/NotI fragments and cloned into pGEX4T1 EcoRI/NotI. The aptamers were then expressed and purified from bacteria as GST fusion proteins, using standard procedures (Smith and Johnson, 1988). GTPase-GST fusion proteins were prepared, loaded with [^3H]GDP and the guanine nucleotide release assays were performed as described (Debant et al., 1996), using recombinant GST-TrioGEFD2 (a.a. 1848-2298), TrioDH2 (a.a. 1848-2096). For each point, 0.3 μM GTPase was mixed with or without 0.4 μM GEF in presence of non-labeled GTP, and the reaction mix was filtered after 0 min and 15 mm reaction at 25° C. The catalytic activity of TrioGEFD2 was thus measured by the decrease of the GTPase-associated radioactivity. The results are expressed as the ratio “exchange after 15 min over exchange after 0 min” (% bound [^3H]GDP-RhoA). To measure the effect of the aptamers on the exchange activity, a 20-fold molar excess of GST-TRIAPs was pre-incubated with GEFD2 (or GEFD1) for 30 min on ice before the exchange assay was carried out. For each experiment, data were obtained in triplicate.
The effect of GST-TRIAPα on other Rho-GEFs that display in vitro exchange activity on RhoA was next tested to investigate whether TRIAPα inhibition was specific of TrioGEFD2. The exchange activities of the RhoGEF Lbc (a.a. 1-424, FIG. 3)(Zheng et al., 1995) and Dbl (a.a. 495-826, data not shown) were not affected by GST-TRIAPα. The effect of GST-TRIAPα on the catalytic activity of RhoGEFs that display a high sequence similarity with TrioGEFD2 was then tested: the recently identified RhoA-specific p63RhoGEF (Souchet et al., 2002) (a.a. 149-374, 71.5% identity with TrioGEFD2, 0.4 μM) and the second Rho-GEF domain of the Trio family member Kalirin (KalGEFD2, a.a. 1850-2190, 65% identity with TrioGEFD2, 1.7 μM). Different concentrations of RhoGEFs were used to yield similar nucleotide exchange […]. For each exchange factor, three independent experiments were done in absence or in the presence of a 20-fold molar excess of GST-TRIAPα. […] Thus, the in vitro inhibitory activity of TRIAPα was selective for TrioGEFD2 (see table I for summary of the tested RhoGEFs).

Full length Trio (RhoG) = target: T2, Full length Trio (RhoG) (Homo sapiens, UniProt O75962); experiment: Yeast Exchange Assay (YEA), full length Trio on RhoG; assay type: cell-based; set-up: key to activation of the reporter gene by full length Trio, RhoG: “+ +” represents a slight activation of the reporter gene; “+ + + +” represents a strong activation of the reporter gene; “−” represents no activation of the reporter gene
T2 construct: Full length Trio was introduced into the YEA; expressed in transfected cells; host or cells: yeast strain TAT7
Excerpt: The wild type GTPase is fused to the LexA DNA binding domain (Matchmaker GAL4 two-hybrid, Clontech Laboratories, Inc., USA) and the effector to the […] (Matchmaker GAL4 two-hybrid, Clontech, Inc., USA). Under these conditions, no binding occurs in the TAT7 strain (De Toledo et al., 2000). Upon addition of a third plasmid expressing the GEF, the GTPase gets activated and binds to its effector, thus leading to the transactivation of the reporter gene LacZ.
Full length Trio was introduced into the YEA and tested for its ability to activate RhoA and RhoG respectively, in the presence or absence of TRIPα. The table below summarizes the effect of TRIPα on Trio as schematized in this Figure.
In order to better characterise the effect of TRIAPα on the Trio full length RhoGEF activity, the yeast exchange assay (YEA) was used, which is a quick and quantitative test derived from the classical two-hybrid system allowing to measure Rho-GEF activity and specificity (De Toledo et al., 2000). This functional assay is based on the fact that the GTPase binds to its effector only if it is activated by a RhoGEF. Briefly, yeasts are transformed with the GTPase fused to the LexA binding domain (LexA), and its effector to the GAL-4 Activating Domain (GAD), and with the adequate Rho-GEF partner in the yeast strain TAT7 (FIG. 7). […]

Effect on Kalirin GEFD2 exchange activity on RhoA (Kalirin GEFD2 (KalGEFD2))	activation of the reporter gene by full length Trio, RhoG (Full length Trio (RhoG); +TRIPα (−TRIPα: + +))	Effect on Kalirin GEFD2 exchange activity on RhoA (Kalirin GEFD2 (KalGEFD2); listed as GST-TRIAPα)	in vitro GEF assay (inhibition) (Kalirin GEFD2 (KalGEFD2); RhoGEF KalirinDH2PH2)	Molecule	Effect on full-length Trio (TrioGEFD1) activation of RhoG in the YEA system (Full length Trio (RhoG))
slightly inhibited	+ + + +			AREGADGAICGYNLATLVMLGPSERVFCPLCEPCSSDIYELM [TRIPα, 42-amino acid peptide corresponding to the variable region of TRIAPα]	
weakly inhibits		only weakly inhibited	+^2	TRIAPα: aptamer of 154 amino acids: variable region of 42 amino acids inserted into the thioredoxin protein; tested as GST fusion (protein) MSDKIIHLTDDSFDTDVLKADGAILVDFWAEWCGPAREGADGAICGYNLATLVMLGPSERVFCPLCEPCSSDIYELMGPCKMIAPILDEIADEYQGKLTVAKLNIDQNPGTAPKYGIRGIPTLLLFKNGEVASATKVGALSKGQLKEFLDANLA	greatly enhanced TrioGEFD1 activation of RhoG

Reference: patent US8088892B2, “Inhibitors of proteins from the Rho-GEF family” (Centre National de la Recherche Scientifique (C.N.R.S.), priority 2002, dated 2012)
